Paper PMC2330239 (Nucleic Acids Research, 2008)

T1: GST fusion protein of the NCoA-1 PAS-B domain, hNCoA-1 (260–370) (human, UniProt Q15788 260-370)
T1 sequence: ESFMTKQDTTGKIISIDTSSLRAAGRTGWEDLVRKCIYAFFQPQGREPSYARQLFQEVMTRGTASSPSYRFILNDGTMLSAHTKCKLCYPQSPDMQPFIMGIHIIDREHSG

T2: NCoA-1 PAS-B domain fragment 257–385 (human, UniProt Q15788 257-385)
T2 sequence: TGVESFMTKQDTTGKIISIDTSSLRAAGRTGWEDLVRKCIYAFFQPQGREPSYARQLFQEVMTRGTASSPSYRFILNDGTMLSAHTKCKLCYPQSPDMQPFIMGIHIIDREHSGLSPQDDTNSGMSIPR


Legend:
[1] = target: T1, GST fusion protein of the NCoA-1 PAS-B …; experiment: pull-down
[2] = target: T2, NCoA-1 PAS-B domain fragment 257–385; experiment: NMR titration

Row | binding result [1] | binding result [2] | Binder
1 | binds | binds | LLPPTEQDLTKLLLEGQGESG [human STAT6 motif peptide, STAT6 (794–814)]
2 | binds | binds | EDQCISSQLDELLCPPTTVEG [peptide representing LXXLL motif 4 of human NCoA-1]
3 | binds | binds | EGRNDEKALLEQLVSFLSGKD [peptide representing LXXLL motif 5 of human NCoA-1]
